Legend:
Assay in all cases: SPR; CBP-FLAG immobilised by amine coupling on a CM5 chip (300-400 RU, 10 mM sodium acetate pH 4.5); serial dilutions of mouse chemokine flowed in triplicate for 3 min, 10 min dissociation; 25°C; HBS-EP buffer (20 mM HEPES, 150 mM NaCl, 3.4 mM EDTA, 0.005% Polysorbate 20, pH 7.4); Biacore X100; global fit with a 1:1 binding model
[1] = target: PVNZ112.6-CBP (Parapoxvirus of red deer in New Zealand (PVNZ), strain RD86)
[2] = target: PVNZ112.3-CBP (Parapoxvirus of red deer in New Zealand (PVNZ), strain RD86)
[3] = target: PVNZ112.0-CBP (Parapoxvirus of red deer in New Zealand (PVNZ), strain RD86)

recombinant mouse CCL2 (from UniProt P10148 24-148) (ligand)
Kd [1]: 0.03 nM | koff [1]: 0.00037 s⁻¹ | kon [1]: 1.18e+07 M⁻¹ s⁻¹

recombinant mouse CCL21 (from UniProt P84444 24-133) (ligand)
Kd [2]: 17.9 nM | koff [2]: 0.00251 s⁻¹ | kon [2]: 140000 M⁻¹ s⁻¹ | Kd [1]: 0.52 nM | koff [1]: 0.0103 s⁻¹ | kon [1]: 1.95e+07 M⁻¹ s⁻¹ | Kd [3]: 12.9 nM | koff [3]: 0.00682 s⁻¹ | kon [3]: 530000 M⁻¹ s⁻¹

B1: recombinant mouse CCL22 (ligand)
chain: GPYGANVEDSICCQDYIRHPLPSRLVKEFFWTSKSCRKPGVVLITVKNRDICADPRQVWVKKLLHKLS
Kd [1]: 0.02 nM | koff [1]: 0.00047 s⁻¹ | kon [1]: 2.17e+07 M⁻¹ s⁻¹

B2: recombinant mouse CCL19 (ligand)
chain: GANDAEDCCLSVTQRPIPGNIVKAFRYLLNEDGCRVPAVVFTTLRGYQLCAPPDQPWVDRIIRRLKKSSAKNKGNSTRRSPVS
Kd [2]: 15.8 nM | koff [2]: 0.00158 s⁻¹ | kon [2]: 10000 M⁻¹ s⁻¹ | Kd [1]: 0.13 nM | koff [1]: 0.00132 s⁻¹ | kon [1]: 1e+07 M⁻¹ s⁻¹

B3: recombinant mouse CXCL2 (ligand)
chain: AVVASELRCQCLKTLPRVDFKNIQSLSVTPPGPHCAQTEVIATLKGGQKVCLDPEAPLVQKIIQKILNKGKAN
Kd [2]: 0.48 nM | koff [2]: 0.00087 s⁻¹ | kon [2]: 1.79e+06 M⁻¹ s⁻¹

B4: recombinant mouse XCL1 (ligand)
chain: VGTEVLEESSCVNLQTQRLPVQKIKTYIIWEGAMRAVIFVTKRGLKICADPEAKWVKAAIKTVDGRASTRKNMAETVPTGAQRSTSTAITLTG
Kd [3]: 30.8 nM | koff [3]: 0.00203 s⁻¹ | kon [3]: 60000 M⁻¹ s⁻¹

B5: recombinant mouse CCL3 (ligand)
chain: APYGADTPTACCFSYSRKIPRQFIVDYFETSSLCSQPGVIFLTKRNRQICADSKETWVQEYITDLELNA
Kd [1]: 2.51 nM | koff [1]: 0.0358 s⁻¹ | kon [1]: 1.42e+07 M⁻¹ s⁻¹

B6: recombinant mouse CXCL1 (ligand)
chain: APIANELRCQCLQTMAGIHLKNIQSLKVLPSGPHCTQTEVIATLKNGREACLDPEAPLVQKIVQKMLKGVPK
Kd [2]: 0.66 nM | koff [2]: 0.00169 s⁻¹ | kon [2]: 2.54e+06 M⁻¹ s⁻¹

B7: recombinant mouse CXCL10 (ligand)
chain: IPLARTVRCNCIHIDDGPVRMRAIGKLEIIPASLSCPRVEIIATMKKNDEQRCLNPESKTIKNLMKAFSQKRSKRAP
Kd [2]: 82.5 nM | koff [2]: 0.0198 s⁻¹ | kon [2]: 240000 M⁻¹ s⁻¹ | Kd [1]: 10.4 nM | koff [1]: 0.00146 s⁻¹ | kon [1]: 140000 M⁻¹ s⁻¹ | Kd [3]: 7.29 nM | koff [3]: 0.00708 s⁻¹ | kon [3]: 970000 M⁻¹ s⁻¹

B8: recombinant mouse CXCL4 (ligand)
chain: VTSAGPEESDGDLSCVCVKTISSGIHLKHITSLEVIKAGRHCAVPQLIATLKNGRKICLDRQAPLYKKVIKKILES
Kd [2]: 0.97 nM | koff [2]: 0.00126 s⁻¹ | kon [2]: 1.29e+06 M⁻¹ s⁻¹ | Kd [1]: 0.59 nM | koff [1]: 0.011 s⁻¹ | kon [1]: 1.85e+07 M⁻¹ s⁻¹ | Kd [3]: 25.9 nM | koff [3]: 0.0044 s⁻¹ | kon [3]: 170000 M⁻¹ s⁻¹

Source: publication PMC6603201
